How the values were obtained:
[1] = target: MDMX (human (endogenous in SJSA-1)) (UniProt O15151)
[2] = target: MDM2 (human (endogenous in SJSA-1)) (UniProt Q00987)
[3] = target: MDMX (human (endogenous in SJSA-1)) (UniProt O15151); remark: listed apart in the source
[4] = target: MDM2 (human (endogenous in SJSA-1)) (UniProt Q00987); remark: listed apart in the source
[5] = target: MDMX (human (endogenous in SJSA-1)) (UniProt O15151); remark: listed apart in the source
[6] = target: MDM2 (human (endogenous in SJSA-1)) (UniProt Q00987); remark: listed apart in the source

Sequence of MDM2 (human (endogenous in SJSA-1)) (Q00987 whole entry): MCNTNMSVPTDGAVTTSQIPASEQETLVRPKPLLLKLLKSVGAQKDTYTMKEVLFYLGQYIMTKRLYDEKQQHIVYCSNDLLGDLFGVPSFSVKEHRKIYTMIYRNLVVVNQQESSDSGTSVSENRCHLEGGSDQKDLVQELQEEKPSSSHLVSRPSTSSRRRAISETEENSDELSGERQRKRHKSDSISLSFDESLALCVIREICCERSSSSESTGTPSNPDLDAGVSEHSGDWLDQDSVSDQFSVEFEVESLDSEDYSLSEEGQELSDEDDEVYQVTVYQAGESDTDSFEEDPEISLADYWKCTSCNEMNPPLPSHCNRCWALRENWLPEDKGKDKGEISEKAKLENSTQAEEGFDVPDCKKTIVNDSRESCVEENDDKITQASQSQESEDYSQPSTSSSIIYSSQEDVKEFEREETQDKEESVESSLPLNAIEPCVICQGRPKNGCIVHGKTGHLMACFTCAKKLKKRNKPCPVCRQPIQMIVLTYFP
Sequence of MDMX (human (endogenous in SJSA-1)) (O15151 whole entry): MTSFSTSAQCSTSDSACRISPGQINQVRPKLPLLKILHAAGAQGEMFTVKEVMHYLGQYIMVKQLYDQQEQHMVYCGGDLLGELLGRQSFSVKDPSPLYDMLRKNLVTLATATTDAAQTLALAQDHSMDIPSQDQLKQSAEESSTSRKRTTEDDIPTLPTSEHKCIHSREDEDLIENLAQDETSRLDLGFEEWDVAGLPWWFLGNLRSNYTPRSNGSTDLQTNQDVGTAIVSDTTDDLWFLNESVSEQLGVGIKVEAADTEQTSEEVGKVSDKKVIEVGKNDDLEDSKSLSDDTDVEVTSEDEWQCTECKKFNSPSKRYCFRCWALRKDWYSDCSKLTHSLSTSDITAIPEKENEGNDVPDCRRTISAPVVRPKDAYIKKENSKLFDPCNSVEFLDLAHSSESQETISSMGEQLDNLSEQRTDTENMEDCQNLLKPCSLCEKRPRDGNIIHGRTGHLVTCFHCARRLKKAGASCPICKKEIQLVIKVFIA

Substance	p53 protein level in SJSA-1 cells after 24 h with 10 uM protein, Western blot densitometry, fold increase [1]	p53 protein level in SJSA-1 cells after 24 h with 10 uM protein, Western blot densitometry, fold increase [2]	cytotoxicity in SJSA-1 cells, CyQuant Assay, 24 h, percent cell death relative to 10 uM rHSA-treated cells (concentrations as indicated in Figure 4A) [3]	cytotoxicity in SJSA-1 cells, CyQuant Assay, 24 h, percent cell death relative to 10 uM rHSA-treated cells (concentrations as indicated in Figure 4A) [4]	caspase activation in SJSA-1 cells, Homogeneous Caspase Assay, 24 h, fold change [5]	caspase activation in SJSA-1 cells, Homogeneous Caspase Assay, 24 h, fold change [6]
recombinant human serum albumin fused at its C-terminus to the MDM2/MDMX-binding peptide N8A-PMI (rHSA-PMI), biotinylated (from UniProt P02768 25-608)	2.9 fold	2.9 fold	84 % cell death	84 % cell death	7 fold	7 fold
recombinant human serum albumin fused at its C-terminus to the wild type p53-derived peptide P53i (rHSA-P53i), biotinylated (from UniProt P02768 25-608)	1.5 fold	1.5 fold	60 % cell death	60 % cell death	< 2 fold	< 2 fold

Reference: paper PMC3836765
